# B1: EGF: Epidermal Growth Factor, EGFR ligand, produced by Becton Dickinson Corp. (protein)
# chain: PQHWSCPEGTLAGNGNSTCVGPAPFLIFSHGNSIFRIDTEGTNYEQLVVDAGVSVIMDFHYNEKRIYWVDLERQLLQRVFLNGSRQERVCNIEKNVSGMAINWINEEVIWSNQQEGIITVTDMKGNNSHILLSALKYPANVAVDPVERFIFWSSEVAGSLYRADLDGVGVKALLETSEKITAVSLDVLDKRLFWIQYNREGSNSLICSCDYDGGSVHISKHPTQHNLFAMSLFGDRIFYSTWKMKTIWIANKHTGKDMVRINLHSSFVPLGELKVVHPLAQPKAEDDTWEPEQKLCKLRKGNCSSTVCGQDLQSHLCMCAEGYALSRDRKYCEDVNECAFWNHGCTLGCKNTPGSYYCTCPVGFVLLPDGKRCHQLVSCPRNVSECSHDCVLTSEGPLCFCPEGSVLERDGKTCSGCSSPDNGGCSQLCVPLSPVSWECDCFPGYDLQLDEKSCAASGPQPFLLFANSQDIRHMHFDGTDYGTLLSQQMGMVYALDHDPVENKIYFAHTALKWIERANMDGSQRERLIEEGVDVPEGLAVDWIGRRFYWTDRGKSLIGRSDLNGKRSKIITKENISQPRGIAVHPMAKRLFWTDTGINPRIESSSLQGLGRLVIASSDLIWPSGITIDFLTDKLYWCDAKQSVIEMANLDGSKRRRLTQNDVGHPFAVAVFEDYVWFSDWAMPSVMRVNKRTGKDRVRLQGSMLKPSSLVVVHPLAKPGADPCLYQNGGCEHICKKRLGTAWCSCREGFMKASDGKTCLALDGHQLLAGGEVDLKNQVTPLDILSKTRVSEDNITESQHMLVAEIMVSDQDDCAPVGCSMYARCISEGEDATCQCLKGFAGDGKLCSDIDECEMGVPVCPPASSKCINTEGGYVCRCSEGYQGDGIHCLDIDECQLGEHSCGENASCTNTEGGYTCMCAGRLSEPGLICPDSTPPPHLREDDHHYSVRNSDSECPLSHDGYCLHDGVCMYIEALDKYACNCVVGYIGERCQYRDLKWWELRHAGHGQQQKVIVVAVCVVVLVMLLLLSLWGAHYYRTQKLLSKNPKNPYEESSRDVRSRRPADTEDGMSSCPQPWFVVIKEHQDLKNGGQPVAGEDGQAADGSMQPTSWRQEPQLCGMGTEQGCWIPVSSDKGSCPQVMERSFHMPSYGTQTLEGGVEKPHSLLSANPLWQQRALDPPHQMELTQ
# System: NCI-H292 cells
# Assay: AB-PAS staining of mucus glycoprotein in NCI-H292 cells
# Format: cell-based, human
# Conditions: FIG. 1 and 2
# Protocol: NCI-H292 cells (human pulmonary mucoepidermoid tumor cell strain, purchased from ATCC) were suspended in 10% FCS (Fetal Calf Serum)-containing RPMI-1640 (produced by Gibco Corp.), sowed on a Lab-Tek 8 well chamber slide (produced by Nunc Corp.) in a density of 6.0×10^4 cells/cm^2, cultured for 72 hours, subjected to the replacement of the culture solution by RPMI-1640 containing 0.1% of BSA, and further cultured for 24 hours.
# On the day of the treatment, the culture solution of each well was replaced by RPMI-1640 (containing 0.1% BSA) containing EGF (5 ng/mL, produced by Becton Dickinson Corp.), HB-EGF (5 ng/mL, produced by R & D Corp.), TGF-α (5 ng/mL, produced by Peprotech Corp.), or PBS to start the treatment. Then, the cells were incubated at 37° C. for 24 hours.
# After the prescribed 24 hours treatment, the culture supernatant was removed. The residue was once washed with PBS, mixed with 4% paraformaldehyde/PBS, and then allowed to stand at room temperature for one hour to immobilize the cells. The immobilized cells were twice washed with Milli Q water and then stained with AB-PAS. The staining was carried out according to a book (“All of new dyeing methods” p136-150 (Iyaku Shuppansha)). […]
molecule,measurement,value
B1,production of the mucus glycoprotein,promoted

# — patent US20040038369A1, “Airway-specific trypsin-like enzymes and method of using the same” (priority 2000, published 2004)
